Literature values, collected in publication PMC10019135.

Target: IL-2Rβ/γc heterodimer (Homo sapiens) (UniProt P14784)
Chain of UniProt P14784 (P14784 27-240, chain 1 of 2): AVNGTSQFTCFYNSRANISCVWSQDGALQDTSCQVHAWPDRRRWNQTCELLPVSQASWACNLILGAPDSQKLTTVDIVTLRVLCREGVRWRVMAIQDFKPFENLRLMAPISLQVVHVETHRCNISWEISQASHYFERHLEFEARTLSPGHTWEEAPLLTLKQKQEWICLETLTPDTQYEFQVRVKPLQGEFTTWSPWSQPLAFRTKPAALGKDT
Chain of UniProt P14784 (P31785 23-262, chain 2 of 2, further chain): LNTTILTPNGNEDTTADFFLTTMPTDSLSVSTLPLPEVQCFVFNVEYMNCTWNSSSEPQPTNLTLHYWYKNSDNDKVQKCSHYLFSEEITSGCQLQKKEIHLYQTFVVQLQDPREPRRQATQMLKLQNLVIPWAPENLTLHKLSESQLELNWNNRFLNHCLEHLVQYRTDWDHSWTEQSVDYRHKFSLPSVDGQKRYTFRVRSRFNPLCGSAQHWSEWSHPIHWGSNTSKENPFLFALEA

Kd: 1 nM
Substance: IL-2 (from UniProt P60568)
